In patent US20160185875A1 (DCB USA, published 2016):

Molecular target: T1, EGFR on EGFR-positive SW480 cells (human, UniProt P00533 25-1210)
T1 construct: whole, on cells; also called epidermal growth factor receptor
Test: cell-based ELISA on EGFR-positive SW480 cells, around 2 hours after MMP2 treatment
Description: Briefly, EGFR-positive SW480 cells or HER2-positive SKBr3 cells were seed on a 96-well plate by 10⁵ cells/well using 200 μl of growth medium (DMEM+10% CCS+1% P/S), and incubated at 37° C. overnight.

antigen binding capability (% of parent antibody): ~90%
B1: MMP2-treated IgG1 hinge/MMP2/panitumumab (antibody, V domains shown, not shown: small tags and cut ends)
VH: QVQLVQSGAEVKKPGASVKVSCKASGYTFTSYWMHWVRQAPGQGLEWMGNIYPGSGGTNYAEKFKNRVTMTRDTSISTAYMELSRLRSDDTAVYYCARSGGPYFFDYWGQGTLVTVSS
VL: DIVMTQSPLSLPVTPGEPASISCRSSQNIVHNNGITYLEWYLQKPGQSPQLLIYKVSDRFSGVPDRFSGSGSGTDFTLKISRVEAEDVGVYYCFQGSHIPPTFGQGTKVEIKR
notes: m14 around 2 hours after MMP2 treatment
